Drawing on article PMC4709948, this text covers Kd for one substance.

The Kd is the free concentration of one partner at which half of the binding sites on the other are occupied at equilibrium, for simple one-to-one binding.

For this test, the target named is GST-fused PRAK protein (UniProt Q8IW41). As to the kind of experiment: SPR; GST-fused PRAK captured by anti-GST antibodies on a CM5 chip; RAGE C-terminal region as analyte, 0 to 40 uM, HBS-EP buffer pH 7.4, 30 uL/min; Biacore X-100. For orientation: SPR reads the build-up and loss of mass on a sensor chip optically.
UniProt Q8IW41, sequence (Q8IW41 whole entry, the tested form may be a part): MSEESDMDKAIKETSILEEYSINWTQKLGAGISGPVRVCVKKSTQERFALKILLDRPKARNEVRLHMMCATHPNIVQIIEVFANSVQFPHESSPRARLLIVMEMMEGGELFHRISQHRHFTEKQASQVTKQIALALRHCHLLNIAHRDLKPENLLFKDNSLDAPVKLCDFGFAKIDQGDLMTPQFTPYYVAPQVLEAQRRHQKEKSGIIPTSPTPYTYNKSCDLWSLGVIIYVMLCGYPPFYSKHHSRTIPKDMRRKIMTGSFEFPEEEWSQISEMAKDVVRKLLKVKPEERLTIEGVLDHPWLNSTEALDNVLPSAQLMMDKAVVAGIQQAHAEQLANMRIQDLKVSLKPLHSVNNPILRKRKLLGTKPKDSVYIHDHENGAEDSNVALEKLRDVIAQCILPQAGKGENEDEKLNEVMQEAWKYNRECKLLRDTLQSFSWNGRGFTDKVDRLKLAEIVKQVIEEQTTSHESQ

Substance “RAGE C-terminal region, SPR analyte (domain or fragment)” displayed a Kd of 509 pM.
